Consider two molecules from PMC6938032 (2020).

Broadly, the Ki is the dissociation constant of the complex between target and ligand, obtained from inhibition or displacement. As a reminder, the Kd is the constant that tells how readily two partners part at equilibrium. Read a high Kd as a looser complex.

Test [1] has as its target Neutrophil elastase (Homo sapiens) (UniProt P08246). The test is described as follows: progress curve inhibition analysis. Conditions: cited from earlier work.
In test [2] the target is T1, Neutrophil elastase (Homo sapiens, UniProt P08246).
T1 chain: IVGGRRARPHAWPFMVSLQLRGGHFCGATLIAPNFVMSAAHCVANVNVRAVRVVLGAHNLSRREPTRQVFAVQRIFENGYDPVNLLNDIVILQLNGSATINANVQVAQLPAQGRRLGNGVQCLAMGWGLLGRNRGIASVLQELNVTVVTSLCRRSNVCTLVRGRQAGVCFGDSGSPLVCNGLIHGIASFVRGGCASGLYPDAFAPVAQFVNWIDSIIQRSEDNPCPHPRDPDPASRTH
Briefly: SPR. (SPR reads the build-up and loss of mass on a sensor chip optically.)

In test [3] the target is T1, Neutrophil elastase. The test is described as follows: progress curve inhibition analysis.

EapH1 (from UniProt A0A0H3KEC5): in test [1], the Ki is 0.021 nM.

B1: EapH2 (protein)
chain: AEKDKLPATQKAKEMQNVPYTIAVDGIMAFNQSYLNLPKDSQLSYLDLGNKVKALLYDERGVTPEKIRNAKSAVYTITWKDGSKKEVDLKKDSYTANLFDSNSIKQIDINVKTK
Consider B1, for which binding with Neutrophil elastase [2] was put at a Kd of 2.16 nM. This molecule returned a Ki in the test with Neutrophil elastase [3] of 2.11 nM.
